Experimental data published in US20130036520A1.

Key:
[1] = target: Cry1Ab receptor sites located in BBMV's (brush border membrane vesicles) from Ostrinia nubilalis larval midgut (Ostrinia nubilalis); assay: homologous radioligand competition, unlabeled Cry1Ab against 0.5 nM 125I Cry1Ab on O. nubilalis BBMVs
[2] = target: Cry1Ab receptor sites located in BBMV's (brush border membrane vesicles) from Ostrinia nubilalis larval midgut (Ostrinia nubilalis); assay: heterologous radioligand competition, unlabeled DIG-3 against 0.5 nM 125I Cry1Ab on O. nubilalis BBMVs

Substance	IC50 [1] [nM]	percent displacement of 125I Cry1Ab binding at 300 nM DIG-3 [2] [%]
Cry1Ab toxin, trypsin activated, non-radioactive (unlabeled homologous competitor) (from UniProt P0A370 29-607)	0.5	
DIG-3 toxin, trypsin activated (unlabeled heterologous competitor)		25
